Laboratory results taken from US6897054.

Molecular target: huCdc7 fused to DNA-binding domain of Gal4 (human)
Assay: yeast two-hybrid assay, lacZ activity

For “H37 deletion derivative ΔP2 fused to Gal4 activation domain (from UniProt Q9UBU7 1-431)”, which interaction relative to the full-length clone is on record?
Its interaction relative to the full-length clone is 10%.
